Molecular target: human Burkitt's lymphoma cell Daudi
Experiment: flow cytometry (FACS) on Daudi cells, which Example 3 says do not express BCMA

EC50: 58.2 µg/mL
Substance: murine anti-BCMA antibody C11D5.3 (scFv), reference antibody
